Broadly, the stoichiometry N is the number of molecules, sites or subunits per partner or assembly.

Two substances from article PMC7817830 can be followed below.

The target of assay [1] is recombinant His-tagged PKM2 after the in vitro SUMOylation reaction (SUMO1 conjugated at K270) (UniProt P14618). The experiment in a line: SEC; samples of the in vitro SUMOylation reaction (recombinant PKM2 or PKM1 with or without purified SUMO1, E1 and E2); UV absorbance and western blot of the fractions with anti-PKM2 or anti-PKM1; tetramer, dimer, monomer by molecular weight. (In general: Size exclusion chromatography separates by hydrodynamic size, large species first.)

The target of assay [2] is Flag-tagged WT PKM2 expressed in 32D BCR-ABL cells (UniProt P14618). The experiment in a line: SEC; cell lysate of 32D BCR-ABL cells on Superdex 200 10/300GL, 50 mM phosphate, 0.15 M NaCl, pH 7.2; fractions by UV absorbance and western blot.

Sequence of Flag-tagged WT PKM2 expressed in 32D BCR-ABL cells, P14618 1-531 (enzyme; other documents disagree on this pair) (P14618 whole entry): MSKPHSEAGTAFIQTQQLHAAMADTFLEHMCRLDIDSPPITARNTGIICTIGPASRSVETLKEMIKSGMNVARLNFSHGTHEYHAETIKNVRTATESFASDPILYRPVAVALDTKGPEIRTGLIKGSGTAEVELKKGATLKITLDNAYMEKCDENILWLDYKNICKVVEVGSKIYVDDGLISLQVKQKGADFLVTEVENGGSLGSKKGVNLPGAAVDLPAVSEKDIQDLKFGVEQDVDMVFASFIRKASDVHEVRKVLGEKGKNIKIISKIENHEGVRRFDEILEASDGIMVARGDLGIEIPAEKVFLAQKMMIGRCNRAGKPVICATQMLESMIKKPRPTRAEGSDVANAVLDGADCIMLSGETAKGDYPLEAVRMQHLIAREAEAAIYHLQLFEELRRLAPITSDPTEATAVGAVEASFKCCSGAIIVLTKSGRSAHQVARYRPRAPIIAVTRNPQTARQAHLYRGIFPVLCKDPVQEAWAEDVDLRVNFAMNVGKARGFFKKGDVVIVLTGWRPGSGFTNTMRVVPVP
Sequence of recombinant His-tagged PKM2 after the in vitro SUMOylation reaction (SUMO1 conjugated at K270) (from UniProt P14618 1-531; P63165 1-97) (enzyme) (P14618 whole entry): as above
Sequence of recombinant His-tagged PKM2 after the in vitro SUMOylation reaction (SUMO1 conjugated at K270) (from UniProt P14618 1-531; P63165 1-97) (enzyme) (P63165 1-97): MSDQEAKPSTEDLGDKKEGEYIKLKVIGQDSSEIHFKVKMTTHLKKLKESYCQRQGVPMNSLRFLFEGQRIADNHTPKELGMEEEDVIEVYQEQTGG

With “recombinant His-tagged PKM2 after the in vitro SUMOylation reaction (SUMO1 conjugated at K270) (from UniProt P14618 1-531; P63165 1-97) (enzyme)”, in assay [1], the stoichiometry N worked out at 2.

In turn, “Flag-tagged WT PKM2 expressed in 32D BCR-ABL cells, P14618 1-531 (enzyme; other documents disagree on this pair)” had a stoichiometry N in assay [2] of 2.
